Experimental data: patent US20220273713A1, “METHOD OF INHIBITING OR ACTIVATING GAMMA DELTA T CELLS” (The University of Melbourne, priority 2019, published 2022)
“And” between values parts separate entries of the source, which are not always exact repeats. Equal values may be shown once.

B1: Hu34C1: antagonist anti-BTN2A1 mAb; VH SEQ ID NO: 100, VL SEQ ID NO: 101; human IgG4 Fab, murine IgG2a Fc (antibody, V domains shown)
VH: EVQLLESGGGLVQPGGSLRLSCAASGFTFSHYPMIWVRQAPGKGLEWVSSISSSGGSTHYADSVKGRFTISRDNSKNTLYLQMNSLRAEDTAMYYCAALVSDTDFWGQGTLVTVSS
VL: DIQMTQSPATLSVSPGESTTLSCRASQSVTSNLAWYQQKPGQAPSLLIYGASTRATGIPARFSGSGSGTEFTLTISSLQSEDSAVYYCQQYNNWPRTFGQGTKVEIK
modifications: human IgG4 Fab, murine IgG2a Fc constant regions; amino acid sequence of Hu34C VH; amino acid sequence of Hu34C VL

Tests used:
Vγ9^+ T cells = details: cited from earlier work
BTN2A1 B30.2 domain = BTN2A1 B30.2 domain (Homo sapiens, UniProt Q7KYR7); details: ITC, 25° C., B30.2 domain 100 μM, pAg 2 mM
Chain of BTN2A1 B30.2 domain (Q7KYR7 310-506 limits assumed): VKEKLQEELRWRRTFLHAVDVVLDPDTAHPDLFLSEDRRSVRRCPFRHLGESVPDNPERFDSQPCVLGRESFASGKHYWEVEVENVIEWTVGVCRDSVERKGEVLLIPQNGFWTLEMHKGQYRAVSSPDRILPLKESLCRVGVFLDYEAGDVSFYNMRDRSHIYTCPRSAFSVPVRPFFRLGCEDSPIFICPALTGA
Experimental: ITC experiments were conducted on a MicroCal ITC200 instrument (GE Healthcare) at 25° C. […] Data were analysed with Microcal Origin software.

Vγ9Vδ2 cells = assay: Luminex (Vγ9Vδ2): cytokine/chemokine secretion by pre-expanded Vγ9Vδ2 cells; format: cell-based, human; details: for GMCSF / ICAM-1 / IFNγ / IL-4 / IL-8 / IL-13 / IL-17A / MIP-1a / MIP-1b / TNFα / sE-selectin / sP-Selectin: 16 hrs, antibodies 10 μg/ml, Zoledronic acid 4 μM, HMBPP 0.5 ng/ml, duplicates, 0 set to 0.1; for cytokine/chemokine secretion, in words: vs isotype (BM4);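 on all read-outs here: Vγ9Vδ2 cells purified from PBMC, activated 48 h with CD3 and CD28 plus IL-2, expanded 14 days in IL-2, then thawed and rested overnight in IL-2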
Experimental: Briefly, Vγ9Vδ2 cells were isolated from 1 healthy donor (Red Cross Australia) and 1 cancer patient derived PBMC using TCRγ/δ+ T Cell Isolation Kit (Miltenyi). Cells were stimulated for 48 hours in TCRPMI supplemented with 100u/ml IL-2, CD3 (10 μg/ml) and CD28 (1 μg/ml). Cells were washed and grown for 14 days in TCRPMI supplemented with 100u/ml IL-2 at 37 degrees C. and 5% CO2, and then frozen down. […] Vγ9Vδ2 were defrosted and rested overnight in TCRPMI supplemented with 50u/ml IL-2 at 37 degrees C. and 5% CO2. […] All samples were run with appropriate controls and standards.

[1] = test system: in vitro pre-expanded CD3+Vδ2+ γδ T cells; assay: HMBPP or anti-CD3/anti-CD28 activation of purified in vitro-expanded Vδ2+ T cells ± neutralizing anti-BTN2A1 mAb; format: cell-based, human; details: HMBPP 0.5 ng/ml, 10 μg/ml neutralizing anti-BTN2A1 mAb, no APCs
Experimental: CD25 expression was determined by flow cytometry, and IFN-γ concentration was determined by cytometric bead array (BD Bioscience) as per manufacturer instructions.

[2] = test system: Vδ2^+ γδ T cells among PBMCs; assay: γδ T cell functional assay: PBMC ± zoledronate ± anti-BTN2A1 mAb; format: cell-based, human; details: PBMCs 24 h, 4 μM zoledronate, 10 μg/ml anti-BTN2A1 mAb, compared to isotype control mAb
Experimental: Fresh PBMC (2×10^6) were cultured in 24 well plates ±zoledronate (4 μM, Sigma) and purified mAb against BTN2A1, BTN3A1, or isotype control IgG1κ (MOPC-21, BioLegend) (10 μg/ml) After 24 h CD3ε^+ γδTCR^+ Vδ2^+/− γδ T cell activation was assessed by flow cytometry and cytokine production was determined by cytometric bead array according to manufacturer instructions (BD). For the assays in FIG. 14, PBMC were cultured in 24 well plates and blocked for 30 min with mAb against BTN2A1, BTN3A1, or isotype control (10 μg/ml). […] Cells were surface-stained and then fixed and permeabilized using Foxp3/Transcription Factor Staining Buffer Set (Invitrogen) according to the manufacturer's protocol followed by staining with anti-IFN-γ (Biolegend). For co-culture assays, purified and in vitro-expanded γδ T cells (5×10^5) were incubated in 96 well plates with APCs (3×10^5) for 24 h ±zoledronate (4 μM), and γδ T cell activation was determined by flow cytometry as above.

[3] = γδT cells from patient 1 (melanoma patient)

Row | Molecule | ICAM-1 (Vγ9Vδ2 cells; γδT cells from a healthy donor) | IFNγ (Vγ9Vδ2 cells; γδT cells from a healthy donor) | IL-4 (Vγ9Vδ2 cells; γδT cells from a healthy donor) | IL-8 (Vγ9Vδ2 cells; γδT cells from a healthy donor) | IL-13 (Vγ9Vδ2 cells; γδT cells from a healthy donor) | IL-17A (Vγ9Vδ2 cells; γδT cells from a healthy donor) | MIP-1a (Vγ9Vδ2 cells; γδT cells from a healthy donor) | MIP-1b (Vγ9Vδ2 cells; γδT cells from a healthy donor) | TNFα (Vγ9Vδ2 cells; γδT cells from a healthy donor) | sE-selectin (Vγ9Vδ2 cells; γδT cells from a healthy donor) | sP-Selectin (Vγ9Vδ2 cells; γδT cells from a healthy donor) | GMCSF (Vγ9Vδ2 cells; [3]) | ICAM-1 (Vγ9Vδ2 cells; [3]) | IFNγ (Vγ9Vδ2 cells; [3]) | IL-4 (Vγ9Vδ2 cells; [3]) | IL-13 (Vγ9Vδ2 cells; [3]) | IL-17A (Vγ9Vδ2 cells; [3]) | MIP-1a (Vγ9Vδ2 cells; [3]) | MIP-1b (Vγ9Vδ2 cells; [3]) | TNFα (Vγ9Vδ2 cells; [3]) | also measured
1 | CC(=CCOP(=O)(O)OP(=O)(O)O)CO [HMBPP, 4-hydroxy-3-methyl-but-2-enyl pyrophosphate, reference compound] | 575.02 pg/mL and 570.14 pg/mL | 751.87 pg/mL and 798.38 pg/mL | 137.56 pg/mL and 117.91 pg/mL | 0.1 pg/mL | 84.37 pg/mL and 87.99 pg/mL | 8.39 pg/mL and 9.97 pg/mL | 395.47 pg/mL and 392.74 pg/mL | 19239.36 pg/mL and 20123.08 pg/mL | 2186.67 pg/mL and 2148.53 pg/mL | 387.87 pg/mL and 373.47 pg/mL | 3183.34 pg/mL and 3082.95 pg/mL | 2172.54 pg/mL and 2625.54 pg/mL | 729.5 pg/mL and 885.22 pg/mL | 723.16 pg/mL and 791.56 pg/mL | 875.51 pg/mL and 1027.45 pg/mL | 478.3 pg/mL and 602.86 pg/mL | 9.23 pg/mL and 10.85 pg/mL | 321.54 pg/mL and 383.73 pg/mL | 9453.77 pg/mL and 12721.52 pg/mL | 2973.1 pg/mL and 3657.48 pg/mL | sensitivity for HMBPP relative to IPP (Vγ9^+ T cells): ~1000 fold; binding of pAg to BTN2A1 B30.2 domain (BTN2A1 B30.2 domain): no clear interaction; GMCSF (Vγ9Vδ2 cells; γδT cells from a healthy donor): 2375.52 pg/mL and 2349.07 pg/mL; sE-selectin (Vγ9Vδ2 cells; [3]): 373.32 pg/mL and 372.16 pg/mL; sP-Selectin (Vγ9Vδ2 cells; [3]): 2542.23 pg/mL and 2775.99 pg/mL
2 | B1 | 0.1 pg/mL | 0.1 pg/mL | 0.1 pg/mL | 0.1 pg/mL | 0.1 pg/mL | 0.1 pg/mL | 9.16 pg/mL and 7.83 pg/mL | 50.62 pg/mL and 43.18 pg/mL | 0.1 pg/mL | 0.1 pg/mL | 0.1 pg/mL | 8.09 pg/mL and 9.22 pg/mL | 0.1 pg/mL | 0.1 pg/mL | 0.1 pg/mL | 16.14 pg/mL and 14.86 pg/mL | 0.1 pg/mL | 50.75 pg/mL and 51.38 pg/mL | 239.49 pg/mL and 252.05 pg/mL | 0.1 pg/mL | HMBPP-induced activation (CD25 upregulation, IFN-γ production) [1]: failed to upregulate CD25 and produce IFN-γ; indicators of TCR-dependent activation (CD25 induction, CD3 downregulation, IFN-γ and TNF production) [2]: significantly inhibited; cytokine/chemokine secretion, in words (Vγ9Vδ2 cells; cancer patient derived Vγ9Vδ2 cells): reduction in levels of GMCSF, ICAM1 (to undetectable levels), IFNγ, IL-13, MIP1α and MIP1β as well as sE-selectin; cytokine/chemokine secretion, in words (Vγ9Vδ2 cells; healthy donor derived Vγ9Vδ2 cells): downregulation of MIP1α and b as well as GMCSF; IL-8 (Vγ9Vδ2 cells; [3]): 0.1 pg/mL; sP-Selectin (Vγ9Vδ2 cells; [3]): 0.1 pg/mL
